B1: Eif4b (protein, UniProt Q8BGD9 1-611, looked up)
Eukaryotic translation …: MAASAKKKNKKGKTISLTDFLAEDGGTGGGSTYVPKPVSWADETDDLEGDVSTTWHSNDDDVYRAPPIDRSILPTAPRAAREPNIDRSRLPKSPPYTAFLGNLPYDVTEDSIKDFFRGLNISAVRLPREPSNPDRLKGFGYAEFEDLDSLLSALSLNEESLGNRRIRVDVADQAQDKDRDDRSFGRDRNRDSDKTDTDWRARPTTDSFDDYPPRRGDDSFGDKYRDRYDSDRYRDGYRDGYRDGPRRDMDRYGGRDRYDDRGSRDYDRGYDSRIGSGRRAFGSGYRRDDDYRGGGDRYEDRYDRRDDRSWSSRDDYSRDDYRRDDRGPPQRPRLNLKPRSAPKEDDASASTSQSSRAASIFGGAKPVDTAAREREVEERLQKEQEKLQRQLDEPKLDRRPRERHPSWRSEETQERERSRTGSESSQTGASATSGRNTRRRESEKSLENETLNKEEDCHSPTSKPPKPDQPLKVMPAPPPKENAWVKRSSNPPARSQSSDTEQPSPTSGGGKVAAVQPPEEGPSRKDGNKVDVVGATQGQAGSCSRGPGDGGSRDHWKDLDRKDGKKDQDSRSAPEPKKPEENPASKFSSASKYAALSVDGEDEDEGDDCTE
B2: Slc9a1 (protein, UniProt Q61165 1-820, looked up)
Sodium/hydrogen exchanger 1: MMLRWSGVWGFHPPRIFPSLLVVVALVGLLPVLRSHGLQHSPTASTIRGSEPPRERSIGDVTTAPSEPLHRPDDHNLTNLIIEHGGKPSRKAFPVLDIDYPHVRTPFEISLWILLACLMKIGFHVIPTISSIVPESCLLIVVGLLVGGLIKGVGETPPFLQSDVFFLFLLPPIILDAGYFLPLRQFTENLGTILIFAVVGTLWNAFFLGGLLYAVCLVGGEQINNIGLLDTLLFGSIISAVDPVAVLAVFEEIHINELLHILVFGESLLNDAVTVVLYHLFEEFASYDSVGISDIFLGFLSFFVVALGGVFVGVVYGVIAAFTSRFTSHIRVIEPLFVFLYSYMAYLSAELFHLSGIMALIASGVVMRPYVEANISHKSHTTIKYFLKMWSSVSETLIFIFLGVSTVAGSHQWNWTFVISTLLFCLIARVLGVLVLTWFINKFRIVKLTPKDQFIIAYGGLRGAIAFSLGYLLDKKHFPMCDLFLTAIITVIFFTVFVQGMTIRPLVDLLAVKKKQETKRSINEEIHTQFLDHLLTGIEDICGHYGHHHWKDKLNRFNKKYVKKCLIAGERSKEPQLIAFYHKMEMKQAIELVESGGMGKIPSAVSTVSMQNIHPKAVTSDRILPALSKDKEEEIRKILRSNLQKTRQRLRSYNRHTLVADPYEEAWNQMLLRRQKARQLEQKITNYLTVPAHKLDSPTLSRARIGSDPLAYEPKADLPVITIDPASPQSPESVDLVNEELKGKVLGLNRGPRVTPEEEEEDEDGIIMIRSKEPSSPGTDDVFTPGSSDSPSSQRIQRCLSDPGPHPEPGEGEPFIPKGQ
B3: Ddx3x (protein, UniProt Q62167 2-662, looked up)
ATP-dependent RNA helicase …: SHVAVENALGLDQQFAGLDLNSSDNQSGGSTASKGRYIPPHLRNREATKGFYDKDSSGWSSSKDKDAYSSFGSRGDSRGKSSFFGDRGSGSRGRFDDRGRGDYDGIGGRGDRSGFGKFERGGNSRWCDKSDEDDWSKPLPPSERLEQELFSGGNTGINFEKYDDIPVEATGNNCPPHIESFSDVEMGEIIMGNIELTRYTRPTPVQKHAIPIIKEKRDLMACAQTGSGKTAAFLLPILSQIYADGPGEALRAMKENGRYGRRKQYPISLVLAPTRELAVQIYEEARKFSYRSRVRPCVVYGGAEIGQQIRDLERGCHLLVATPGRLVDMMERGKIGLDFCKYLVLDEADRMLDMGFEPQIRRIVEQDTMPPKGVRHTMMFSATFPKEIQMLARDFLDEYIFLAVGRVGSTSENITQKVVWVEEIDKRSFLLDLLNATGKDSLTLVFVETKKGADSLEDFLYHEGYACTSIHGDRSQRDREEALHQFRSGKSPILVATAVAARGLDISNVKHVINFDLPSDIEEYVHRIGRTGRVGNLGLATSFFNERNINITKDLLDLLVEAKQEVPSWLENMAFEHHYKGSSRGRSKSSRFSGGFGARDYRQSSGASSSSFSSSRASSSRSGGGGHGGSRGFGGGGYGGFYNSDGYGGNYNSQGVDWWGN
B4: Eef1e1 (protein, UniProt Q9D1M4 2-174, looked up)
Eukaryotic translation …: AAAAELRLLEKSLGLKPGNKYSAQGERQIPVLQTNNGPSLMGLSTIATHLVKQASKEHLLGSTAEEKAMVQQWLEFRVTRVDGHSSKEDTQTLLKDLNSYLEDKVYLAGHNITLADILLYYGLHRFIVDLTVQEKEKYLNVSRWFCHIQHYPDIRQHLSSIVFIKNRLYANSH
B5: Fgfr1 (protein, UniProt P16092 22-822, looked up)
Fibroblast growth factor …: RPAPTLPEQAQPWGVPVEVESLLVHPGDLLQLRCRLRDDVQSINWLRDGVQLVESNRTRITGEEVEVRDSIPADSGLYACVTSSPSGSDTTYFSVNVSDALPSSEDDDDDDDSSSEEKETDNTKPNRRPVAPYWTSPEKMEKKLHAVPAAKTVKFKCPSSGTPNPTLRWLKNGKEFKPDHRIGGYKVRYATWSIIMDSVVPSDKGNYTCIVENEYGSINHTYQLDVVERSPHRPILQAGLPANKTVALGSNVEFMCKVYSDPQPHIQWLKHIEVNGSKIGPDNLPYVQILKTAGVNTTDKEMEVLHLRNVSFEDAGEYTCLAGNSIGLSHHSAWLTVLEALEERPAVMTSPLYLEIIIYCTGAFLISCMLGSVIIYKMKSGTKKSDFHSQMAVHKLAKSIPLRRQVTVSADSSASMNSGVLLVRPSRLSSSGTPMLAGVSEYELPEDPRWELPRDRLVLGKPLGEGCFGQVVLAEAIGLDKDKPNRVTKVAVKMLKSDATEKDLSDLISEMEMMKMIGKHKNIINLLGACTQDGPLYVIVEYASKGNLREYLQARRPPGLEYCYNPSHNPEEQLSSKDLVSCAYQVARGMEYLASKKCIHRDLAARNVLVTEDNVMKIADFGLARDIHHIDYYKKTTNGRLPVKWMAPEALFDRIYTHQSDVWSFGVLLWEIFTLGGSPYPGVPVEELFKLLKEGHRMDKPSNCTNELYMMMRDCWHAVPSQRPTFKQLVEDLDRIVALTSNQEYLDLSIPLDQYSPSFPDTRSSTCSSGEDSVFSHEPLPEEPCLPRHPTQLANSGLKRR
B6: Txnl1 (protein, UniProt O43396 2-289, looked up)
Thioredoxin-like protein 1: VGVKPVGSDPDFQPELSGAGSRLAVVKFTMRGCGPCLRIAPAFSSMSNKYPQAVFLEVDVHQCQGTAATNNISATPTFLFFRNKVRIDQYQGADAVGLEEKIKQHLENDPGSNEDTDIPKGYMDLMPFINKAGCECLNESDEHGFDNCLRKDTTFLESDCDEQLLITVAFNQPVKLYSMKFQGPDNGQGPKYVKIFINLPRSMDFEEAERSEPTQALELTEDDIKEDGIVPLRYVKFQNVNSVTIFVQSNQGEEETTRISYFTFIGTPVQATNMNDFKRVVGKKGESH
B7: Col6a1 (protein, UniProt Q04857 20-1025, looked up)
Collagen alpha-1(VI) chain: QDIQGSKAIAFQDCPVDLFFVLDTSESVALRLKPYGALVDKVKSFTKRFIDNLRDRYYRCDRNLVWNAGALHYSDEVEIIRGLTRMPSGRDELKASVDAVKYFGKGTYTDCAIKKGLEELLIGGSHLKENKYLIVVTDGHPLEGYKEPCGGLEDAVNEAKHLGIKVFSVAITPDHLEPRLSIIATDHTYRRNFTAADWGHSRDAEEVISQTIDTIVDMIKNNVEQVCCSFECQAARGPPGPRGDPGYEGERGKPGLPGEKGEAGDPGRPGDLGPVGYQGMKGEKGSRGEKGSRGPKGYKGEKGKRGIDGVDGMKGETGYPGLPGCKGSPGFDGIQGPPGPKGDAGAFGMKGEKGEAGADGEAGRPGNSGSPGDEGDPGEPGPPGEKGEAGDEGNAGPDGAPGERGGPGERGPRGTPGVRGPRGDPGEAGPQGDQGREGPVGIPGDSGEAGPIGPKGYRGDEGPPGPEGLRGAPGPVGPPGDPGLMGERGEDGPPGNGTEGFPGFPGYPGNRGPPGLNGTKGYPGLKGDEGEVGDPGEDNNDISPRGVKGAKGYRGPEGPQGPPGHVGPPGPDECEILDIIMKMCSCCECTCGPIDILFVLDSSESIGLQNFEIAKDFIIKVIDRLSKDELVKFEPGQSHAGVVQYSHNQMQEHVDMRSPNVRNAQDFKEAVKKLQWMAGGTFTGEALQYTRDRLLPPTQNNRIALVITDGRSDTQRDTTPLSVLCGADIQVVSVGIKDVFGFVAGSDQLNVISCQGLSQGRPGISLVKENYAELLDDGFLKNITAQICIDKKCPDYTCPITFSSPADITILLDSSASVGSHNFETTKVFAKRLAERFLSAGRADPSQDVRVAVVQYSGQGQQQPGRAALQFLQNYTVLASSVDSMDFINDATDVNDALSYVTRFYREASSGATKKRVLLFSDGNSQGATAEAIEKAVQEAQRAGIEIFVVVVGPQVNEPHIRVLVTGKTAEYDVAFGERHLFRVPNYQALLRGVLYQTVSRKVALG

Tests used:
DYT-TOR1A MEF EVs = assay: Quantitative LC-MS/MS proteomics of EVs from drug-treated DYT-TOR1A MEF cultures (ritonavir, salubrinal); format: cell-based, mouse; parameters: key to RTV Corrective Direction / RTV Corrective Direction, Grwd1 / RTV Corrective Direction, Srrm2 / RTV Corrective Direction, Rbm17 / RTV Corrective Direction, Dcaf8 / RTV Corrective Direction, Edil3 / RTV Corrective Direction, Timp3 / RTV Corrective Direction, Heatr3 / RTV Corrective Direction, Brd4 / RTV Corrective Direction, P3h4 / RTV Corrective Direction, Pacsin3 / RTV Corrective Direction, Naa50 / RTV Corrective Direction, Lpar6 / RTV Corrective Direction, Ndrg1 / RTV Corrective Direction, Kntc1 / RTV Corrective Direction, Cdk11b / RTV Corrective Direction, Sumo1 / RTV Corrective Direction, Lsm4 / RTV Corrective Direction, Hmga2 / RTV Corrective Direction, Cstf1 / RTV Corrective Direction, Tes / RTV Corrective Direction, Sbno1 / RTV Corrective Direction, Unc119b / RTV Corrective Direction, Cfdp1 / RTV Corrective Direction, Sec61b: YES = protein abundance effect opposite to DYT/WT; details: EV protein abundance; for RTV Corrective Direction: DYT + RTV (ritonavir) vs DYT, direction compared with DYT/WT; for DYT + RTV/DYT Cohen's d: ritonavir (RTV)-treated DYT vs DYT
WT MEF EVs = assay: Quantitative LC-MS/MS proteomics of EVs from ISRIB-treated WT MEF cultures; format: cell-based, mouse; parameters: key to ISRIB and DYT Parallel Direction / ISRIB and DYT Parallel Direction, Ctdsp1 / ISRIB and DYT Parallel Direction, Pcdh19 / ISRIB and DYT Parallel Direction, Tspan7 / ISRIB and DYT Parallel Direction, Myo1e / ISRIB and DYT Parallel Direction, Plpp3 / ISRIB and DYT Parallel Direction, Sh3bp4 / ISRIB and DYT Parallel Direction, Dnajc7 / ISRIB and DYT Parallel Direction, Drg1 / ISRIB and DYT Parallel Direction, Maea: YES = protein abundance effect similar to DYT/WT; details: EV protein abundance; for WT + ISRIB/WT Cohen's d: ISRIB-treated WT vs WT; for ISRIB and DYT Parallel Direction: WT + ISRIB vs WT, direction compared with DYT/WT

Row | Molecule | RTV Corrective Direction (DYT-TOR1A MEF EVs) | DYT + RTV/DYT Cohen's d (DYT-TOR1A MEF EVs) | WT + ISRIB/WT Cohen's d (WT MEF EVs) | ISRIB and DYT Parallel Direction (WT MEF EVs)
1 | B1 | YES | −1.72 | 3.88 | YES
2 | B2 | YES | −2.60 | 0.44 | YES
3 | B3 | YES | 2.24 | −1.08 | YES
4 | B4 | YES | 16.90 | −3.65 | YES
5 | B5 | YES | −2.81 | 5.66 | YES
6 | B6 | YES | 1.99 | −0.66 | YES
7 | B7 | YES | −1.96 | 0.14 | YES
